Measured values taken from US8217161B2, “Methods of inhibiting multiple cytochrome P450 genes with siRNA” (Clemson University Research Foundation, priority 2008, dated 2012).
Read-outs that look alike come from different tables or passages of the source.

B1: Cyp2b-KD2: lentiviral shRNA construct targeting mouse Cyp2b subfamily; siRNA sequence AAGAACACTGAGGTGTACCCC (nucleic acid)
DNA: GGATCCCAAGAACACTGAGGTGTACCCCTTGATATCCGGGGGTACACCTCAGTGTTCTTTTTTTTCCAACTCGAG
B2: scrambled-shRNA: control shRNA construct with scrambled sequence that does not recognize any murine mRNAs (nucleic acid)
chain: GGATCCCGACGATTCGAGGCGCAGTGATTTGATATCCGATCACTGCTCCTCGAATCGTCTTTTTTCCAACTCGAG
B3: Cyp2b-KD3: lentiviral shRNA construct targeting mouse Cyp2b subfamily; siRNA sequence CAGGAAAGCGCATTTGTCTTG (nucleic acid)
DNA: GGATCCCGCAAGACAAATGCGCTTTCCTGTTGATATCCGCAGGAAAGCGCATTTGTCTTGTTTTTTCCAACTCGAG

Legend:
Cyp2b-knockdown mice [1] = settings: mouse, in vivo
Cyp2b-knockdown mice [2] = assay: Chlorpyrifos toxicity in Cyp2b-knockdown mice; assay type: in vivo, mouse; settings: 10 mg/kg ip
Protocol: Chlorpyrifos: Similar to parathion, chlorpyrifos is an organophosphate insecticide that activates CAR, but chlorpyrifos is more toxic to wild-type mice. Initial toxicity is outwardly shown by mucous discharge from the eyes and later by reduced activity or complete lethargy, similar to other acetylcholinesterase inhibitors. Mice are injected ip with 10 mg/kg of chlorpyrifos and watched for behavioral changes. Mice showing toxicity are immediately euthanized to avoid unnecessary distress or pain. Statistical differences are determined using a Fisher's 2×2 test (StatView®, SAS Institute, Cary, N.C.).

Cyp2b-knockdown mice [3] = settings: 75 mg/kg ip, observed 30 minutes
Protocol: Strychnine: Strychnine is a Cyp2b-inducer (Oguri et al., Arch. Biochem. Biophys. 287:105 (1991); Yamada et al., Arch. Biochem. Biophys. 299:248 (1992)) and therefore a potential CAR agonist. Strychnine is administered ip (75 mg/kg in saline) and observed for 30 minutes. Latency time to the first convulsions and number of animals showing convulsion is noted. […] Statistical analysis is performed using Fisher's 2×2 tests.

Cyp2b9 mRNA = assay: Q-PCR of Cyp2b9 mRNA in TCPOBOP-induced primary mouse hepatocytes transduced with lentiviral shRNA constructs; assay type: cell-based
Protocol: (§1) Q-PCR is performed to determine the efficacy of shRNA knockdown of the Cyp2b gene subfamily. Total RNA is isolated using a modified guanidinium thiocyanate-phenol-chloroform extraction protocol with TRI-reagent (Sigma, St. Louis, Mo.) according to the manufacturer's specifications followed by DNAse (Promega Corporation, Madison Wis.) treatment to remove residual genomic DNA. RNA is quantified spectrophotometrically and stored at −80° C. Reverse transcription is performed to create cDNA using MMLV-RT, a dNTP mixture, and random decamers. cDNA is stored at −20° C. Q-PCR is performed as described previously (Roling et al., Mar. Environ. Res. 57:377 (2004)). Briefly, to generate a standard curve and determine PCR efficiency, cDNA is combined and a 2×, 1:1, 1:10, 1:100, and 1:1000 dilution made. […] Amplifications are performed in triplicate using a 96-well MyiQ™ Real-Time PCR Detection System (Bio-Rad) with 0.25× SybrGreen as the fluorescent double strand-intercalating agent to quantify gene expression. The advantage of Q-PCR is having enough material to investigate a decrease of several Cyp2b isoforms as well as confirm that other P450 subfamilies are unaffected (Cyp3a, 2c).
(§2) Q-PCR results are normalized to the expression of the two housekeeping genes, β-Actin and 18S rRNA. A minimum of forty cycles is run on all real time samples to ensure a log based growth curve. Quantification is done by taking the efficiency curve of the Q-PCR reaction to the power of the threshold cycle (Ct). Samples are normalized to reference genes (β-actin and 18S rRNA) quantified for each sample. The formula for calculating normalized gene expression is NE={Eref}^Ct-ref/{Etarget}^Ct-target where NE is normalized gene expression, E is the efficiency of amplification for a particular gene, Ct is the threshold cycle, ref is the housekeeping gene (β-actin and 18S rRNA), and target is the gene of interest (Muller et al., Biotechniques 32:1372 (2002)).
(§3) The efficacy of the Cyp2b-KD2 and Cyp2b-KD3 lentiviral constructs to repress the expression of the Cyp2b subfamily members, Cyp2b9 and Cyp2b10 was tested using primary mouse hepatocytes. Primary mouse hepatocytes were plated in 6-well plates, treated with the CAR activator TCPOBOP to induce Cyp2b subfamily members (especially Cyp2b10) and then infected with either scrambled, Cyp2b-KD2 or Cyp2b-KD3 at a multiplicity of infection (MOI) of 20 and/or 5. The percentage of cells infected based on the presence of green fluorescence using fluorescent microscopy was approximately 65-80+% in KD2 transduced cells at a MOI of 5 and a about 55-70% in KD3 transduced cells at a MOI of 5.

Cyp2b10 mRNA = assay: Q-PCR of Cyp2b10 mRNA in TCPOBOP-induced primary mouse hepatocytes transduced with lentiviral shRNA constructs; assay type: cell-based; settings: for reduction of Cyp2b10 expression: MOI 20 and/or 5, vs scrambled lentivirus
Protocol: as §1, §2, §3

[4] = test system: primary mouse hepatocytes; assay: Percentage of cells infected, by green fluorescence microscopy; assay type: cell-based; settings: MOI of 5
Protocol: as §3

[5] = TCPOBOP-treated primary mouse hepatocytes

Molecule | Cyp2b9 expression relative to cells treated with the scrambled shRNA (in words) (Cyp2b9 mRNA) | Cyp2b10 expression relative to cells treated with the scrambled shRNA (in words) (Cyp2b10 mRNA) | reduction of Cyp2b10 expression (Cyp2b10 mRNA; [5]) | percentage of cells infected based on green fluorescence [4] | other results
CC(=O)Nc1ccc(O)cc1 [acetaminophen] |  |  |  |  | toxicity in TCPOBOP-treated mice (Cyp2b-knockdown mice [1]): greatest amount of toxicity
CCOP(=S)(OCC)Oc1nc(Cl)c(Cl)cc1Cl [chlorpyrifos] |  |  |  |  | sensitivity as compared to wild-type mice (Cyp2b-knockdown mice [2]): decreased sensitivity
O=C1C[C@@H]2OCC=C3CN4CC[C@]56c7ccccc7N1[C@H]5[C@H]2[C@H]3C[C@H]46 [strychnine] |  |  |  |  | protection from convulsions (Cyp2b-knockdown mice [3]): protection
B1 | reduced | reduced | 75-98% | 65-80% | reduction of Cyp2b9 expression (Cyp2b9 mRNA; TCPOBOP-treated primary mouse hepatocytes, MOI 20 and/or 5, vs scrambled lentivirus): 75-98%
B2 |  |  |  |  | Cyp2b9 expression relative to uninfected cells (in words) (Cyp2b9 mRNA; [5]): did not reduce; Cyp2b10 expression relative to uninfected cells (in words) (Cyp2b10 mRNA; [5]): did not reduce
B3 | not reduced | only KD2 reduced | 50% | 55-70% | Cyp2b9 expression relative to cells treated with the scrambled shRNA (in words) (Cyp2b9 mRNA; listed as KD3): reduced
